Reference: PMC7606108 (Acta Pharmaceutica Sinica. B, 2020)

Molecular target: the molecule itself
Experiment: sucrose density gradient analysis

B1: Acetylcholinesterase, endogenous in macrophages (enzyme, UniProt P21836 32-614, looked up)
chain: EGREDPQLLVRVRGGQLRGIRLKAPGGPVSAFLGIPFAEPPVGSRRFMPPEPKRPWSGVLDATTFQNVCYQYVDTLYPGFEGTEMWNPNRELSEDCLYLNVWTPYPRPASPTPVLIWIYGGGFYSGAASLDVYDGRFLAQVEGAVLVSMNYRVGTFGFLALPGSREAPGNVGLLDQRLALQWVQENIAAFGGDPMSVTLFGESAGAASVGMHILSLPSRSLFHRAVLQSGTPNGPWATVSAGEARRRATLLARLVGCPPGGAGGNDTELIACLRTRPAQDLVDHEWHVLPQESIFRFSFVPVVDGDFLSDTPEALINTGDFQDLQVLVGVVKDEGSYFLVYGVPGFSKDNESLISRAQFLAGVRIGVPQASDLAAEAVVLHYTDWLHPEDPTHLRDAMSAVVGDHNVVCPVAQLAGRLAAQGARVYAYIFEHRASTLTWPLWMGVPHGYEIEFIFGLPLDPSLNYTTEERIFAQRLMKYWTNFARTGDPNDPRDSKSPQWPPYTTAAQQYVSLNLKPLEVRRGLRAQTCAFWNRFLPKLLSATDTLDEAERQWKAEFHRWSSYMVHWKNQFDHYSKQERCSDL
stoichiometry N: 4
